The EC50 is the concentration at which the effect is half-maximal. As usually defined, the Kd is the equilibrium constant for the complex coming apart. High values mean a looser complex, low ones a tighter complex.

The record followed here is US20220267421A1 (INVOX PHARMA, published 2022).

Assay [1] concerns the target T1, cell surface human mesothelin (MSLN) (human, UniProt Q13421 296-598).
T1 construct: whole, on cells; also called cell surface MSLN
The experiment in a line: flow cytometry, NCI-H226 cells. The method, then: (§1) Cells were centrifuged at 1200 rpm for 3 min and resuspended in ice cold FACS buffer made up of DPBS (Life Technologies, 14190169) and 1% BSA (Sigma-Aldrich, A7906) at 2×10⁶ cells/ml and 50 μl per well was seeded in a 96-well V-bottom plate (Costar, 3894). All mAbs tested were diluted in FACS buffer in 120 μl at a concentration range of 0.01-200 nM (4-fold dilutions). The NCI-H226 cells were then centrifuged, supernatant removed and cells resuspended in 100 μl of each mAb dilution and incubated at 4° C. for 45 min. Cells were washed twice by centrifugation with 150 μl FACS buffer, resuspended in 100 μl containing goat anti-human IgG (γ-chain specific) F(ab′)2 fragment-R-Phycoerythrin antibody (Sigma, P8047) diluted 1:1000 in FACS buffer and incubated at 4° C. for 45 min. The cells were washed once with 150 μl FACS buffer and then with 150 μl DPBS, resuspended in 150 μl DPBS containing DAPI (Biotium, 40043) at 1:10.000 and read on the BDCantoll or iQue (Intellicyt). Data was analysed using FlowJo v10 to determine the signal geometric mean for PE for live cells in each well.
(§2) Cell binding assays using OVCAR-3 cells were performed similarly to the assays described in section 2.4. The effect of the presence of soluble MSLN was tested by pre-incubating the antibodies in the presence or absence of soluble MSLN before mixing with cells and determining if the pre-incubation affected binding to MSLN on the cell surface. […] 60 μl from each well was then added to either FACS buffer alone or to FACS buffer containing 60 μl of 40 nM recombinant hMSLN (R&D systems, 3265-MS-050) (to give a final concentration of 20 nM hMSLN) and pre-incubated at room temperature for 1 hour before 100 μl was added to the cells. Bound antibody was detected using goat anti-human anti-Fcγ Alexa-Fluor 488 (Jackson Immunoresearch, 109-546-098).
(§3) The method used was exactly as described in section 3.1.4.
A general note: In flow cytometry, cells or beads pass a laser one at a time.

The target of assay [2] is T2, cynomolgus MSLN-His-Avi (cynomolgus, single biotin (BirA) in the biotinylated form).
T2 construct: Monomeric, made in HEK293-6E; also called cMSLN-His-Avi; cyno MSLN-His-Avi
T2 chain: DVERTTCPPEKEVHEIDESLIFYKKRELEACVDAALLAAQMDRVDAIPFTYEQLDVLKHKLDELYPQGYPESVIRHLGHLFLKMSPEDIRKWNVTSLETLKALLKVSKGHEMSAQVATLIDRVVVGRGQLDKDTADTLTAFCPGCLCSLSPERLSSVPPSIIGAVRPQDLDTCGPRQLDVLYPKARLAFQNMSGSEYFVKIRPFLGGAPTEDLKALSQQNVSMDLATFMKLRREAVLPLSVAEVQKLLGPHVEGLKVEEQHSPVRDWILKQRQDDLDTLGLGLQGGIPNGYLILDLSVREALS
The experiment in a line: SPR (Biacore), mAb^2 captured on Protein G, MSLN in solution injected. The method, then:
(§4) Binding of the selected anti-MSLN clones in mAb² format, to recombinant human and cyno MSLN-His-Avi antigen was measured by SPR using a Biacore T200 processing unit (GE Healthcare). As previously described, it was desirable to bind more strongly to immobilised antigen than to soluble antigen. To assess the binding properties of the clones, binding kinetics to immobilised MSLN antigen were determined as described in section 2.1.2 and compared to the kinetics obtained when MSLN antigens in solution bound to captured clones.
(§5) For the capture experiments, clones in mAb² format were captured using a BIAcore sensor series S chip Protein G (GE Healthcare, 29179315). mAb² diluted in HBS-EP buffer (GE Healthcare, BR100188) containing 900 mM […] at 1 μg/ml, were injected individually on flow cell 2, 3 and 4 at 30 μl/min to achieve a response of approximately 100 RU. G1-AA/HeID1.3 was captured on flow cell 1. The recombinant human and cyno MSLN-His-Avi (section 1.1), diluted in HBS-EP buffer containing 900 mM […], were injected on flow cell 1, 2, 3 or 4 as appropriate at a concentration range of 1000 nM to 0.051 nM with 3-fold dilutions for 5 minutes at 70 μl/min and then allowed to dissociate in buffer for 5 minutes. Regeneration was achieved by injecting 10 mM glycine pH1.5 (GE Healthcare, BR100354) and surfactant P20 (GE Healthcare, BR-1000-54) for 20 seconds at a rate of 30 μl/min. Subtracted data (flow cell 2−flow cell 1, flow cell 3−flow cell 1, or flow cell 4−flow cell 1) were analysed using BIAevaluation 3.2 Software (GE Healthcare) to identify binding using the model 1:1 binding, local Rmax and with refractive index (RI) constant 0.
A general note: In SPR one partner is held on a chip, and binding of the other changes the refractive index at the surface.

The target in assay [3] is T3, human MSLN-His-Avi (human, UniProt Q13421 296-598, single biotin (BirA) in the biotinylated form).
T3 construct: Monomeric, made in HEK293-6E; Used both immobilised and in solution; also called hMSLN-His-Avi; biotinylated hMSLN-His-Avi
The description is as above. How it is done: as §4, §5

Assay [4] addresses T3, human MSLN-His-Avi. The experiment in a line: ratio of the two SPR KD. How it is done: (§6) Human MSLN-His-Avi was immobilised on flow cell 2 on a CM5 Series S BIAcore sensor chip (GE Healthcare, BR100530) using an amine coupling kit (GE Healthcare, BR10050) to approximately 200 response units (RU). Flow cell 1 was left blank for subtraction. HEK293-6E supernatants or purified proteins were adjusted with HBS-EP+(GE Healthcare) to approximately 50 nM anti-MSLN mAb per sample. Samples were injected over flow cell 1 and 2 for 2.5 min at 30 μl/min and then allowed to dissociate in HBS-EP buffer for 2.5 min. Regeneration was achieved by injecting 10 mM glycine pH 1.5 (GE Healthcare, BR100354) for 30 seconds at a rate of 30 μl/min. Subtracted data (flow cell 2−flow cell 1) were analysed using BIAevaluation 3.2 Software (GE Healthcare).
as §4
as §5, with “μl/min.” for “μl/min. Subtracted data (flow cell 2−flow cell 1, flow cell 3−flow cell 1, or flow cell 4−flow cell 1) were analysed using BIAevaluation 3.2 Software (GE Healthcare) to identify binding using the model 1:1 binding, local Rmax and with refractive index (RI) constant 0.”

The target in assay [5] is T3, human MSLN-His-Avi. The experiment in a line: SPR (Biacore), MSLN immobilised, mAb^2 injected. How it is done: as §6, §4
The target in assay [6] is T1, cell surface human mesothelin (MSLN). The experiment in a line: flow cytometry, NCI-H226 cells + 20 nM soluble MSLN. The method, then:
as §1, §2, §3

Substitutions are numbered along the chain they refer to. Bounds are passed on as bounds.

T3 sequence (Q13421 other isoform, or with tags, fused parts or gaps): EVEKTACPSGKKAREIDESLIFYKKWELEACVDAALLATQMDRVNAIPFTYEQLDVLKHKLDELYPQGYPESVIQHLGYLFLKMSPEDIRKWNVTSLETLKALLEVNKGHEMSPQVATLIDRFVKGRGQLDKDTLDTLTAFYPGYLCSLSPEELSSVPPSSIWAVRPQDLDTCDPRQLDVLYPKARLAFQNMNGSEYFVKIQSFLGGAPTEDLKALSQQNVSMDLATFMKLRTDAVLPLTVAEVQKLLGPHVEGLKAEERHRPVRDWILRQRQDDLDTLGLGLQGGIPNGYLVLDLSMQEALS
T1 sequence (Q13421 other isoform, or with tags, fused parts or gaps limits assumed): as the sequence (Q13421 other isoform, or with tags, fused parts or gaps) above

B1: FS22-053-008-AA/FS28-024-051 mAb^2 (bispecific antibody, human IgG1, kappa, L234A L235A, V domains shown)
VH: EVQLLESGGGLVQPGGSLRLSCAASGFTLSYSSMSWVRQAPGKGLEWVSFITPSTGYTHYADSVKGRFTISRDNSKNTLYLQMNSLRAEDTAVYYCARRALIFDYWGQGTLVTVSS
VL: EIVLTQSPGTLSLSPGERATLSCRASQSVSSSYLAWYQQKPGQAPRLLIYGASSRATGIPDRFSGSGSGTDFTLTISRLEPEDFAVYYCQQASSYPLTFGQGTKVEIKR
notes: also called FS28-024-51
As to B1, the EC50 is 0.78 nM in assay [1] and 7.47 nM in assay [6]. The figures for the “Emax (MFI)” value in assay [1] and in assay [6] were 801000 MFI and 1.1e+06 MFI, respectively. For the same molecule, the dissociation constant (Kd) in assay [2] was found to be 148 nM; in assay [3], 47.5 nM; in assay [5], 0.31 nM. For the same molecule, the “Ratio of KD in solution/immobilised for human MSLN-His-Avi” value (“Ratio of KD in solution/immobilised” for short) in assay [4] was determined as 154.

B2: FS22-053-008-AA/FS28-024-060 mAb^2 (bispecific antibody, human IgG1, kappa, L234A L235A, V domains shown)
VH: B1 VH with I102W
VL: B1 VL
Take B2: the results for the EC50 in assay [1] and in assay [6] were 1.46 nM and 25.7 nM, respectively. Further, the “Emax (MFI)” value in assay [1] worked out at 1.01e+06 MFI; in assay [6] it was 1.23e+06 MFI. Further, the dissociation constant Kd in assay [2] worked out at 266 nM; in assay [3], 5.2 nM; in assay [5] it was 0.07 nM. Moreover, in assay [4], the “Ratio of KD in solution/immobilised” value was found to be 78.6.

B3: FS22-053-008-AA/FS28-256-014 mAb^2 (bispecific antibody, human IgG1, kappa, L234A L235A, V domains shown)
VH: EVQLLESGGGLVQPGGSLRLSCAASGFTFTDTYMSWVRQAPGKGLEWVSNISPTYSTTNYADSVKGRFTISRDNSKNTLYLQMNSLRAEDTAVYYCARYNAYAAGLDYWGQGTLVTVSS
VL: B1 VL with A92S, S93Y, S94Y, L97I
B3: in assay [1], the concentration giving a half-maximal response (EC50) was 3.11 nM and the “Emax (MFI)” value was 771000 MFI. Moreover, in assay [6], the 50% effective concentration (EC50) is 2.72 nM and the “Emax (MFI)” value turned out to be 616000 MFI.

B4: FS22-053-008-AA/FS28-256-018 mAb^2 (bispecific antibody, human IgG1, kappa, L234A L235A, V domains shown)
VH: B3 VH with D31Q, A103Q, A104I
VL: B1 VL with A92S, S93Y, S94Y, L97I
Take B4: in assay [1], the EC50 was found to be 6.98 nM and the “Emax (MFI)” value amounted to 637000 MFI. In assay [6], the EC50 turned out to be 4.6 nM and the “Emax (MFI)” value turned out to be 494000 MFI.

B5: FS22-053-008-AA/FS28-024-052 mAb^2 (bispecific antibody, human IgG1, kappa, L234A L235A, V domains shown)
VH: B1 VH with I102L
VL: B1 VL
notes: also called FS28-024-52
On to B5, for which the values for the EC50 in assay [1] and in assay [6] were 1.32 nM and 4.28 nM, respectively. Also, the “Emax (MFI)” value in assay [1] is 958000 MFI; in assay [6], 986000 MFI. Also, the Kd in assay [2] was determined as 185 nM; in assay [3] it was 33.1 nM; in assay [5], 0.36 nM. In assay [4], the “Ratio of KD in solution/immobilised” value was 92.3.

B6: FS22-053-008-AA/FS28-256-005 mAb^2 (bispecific antibody, human IgG1, kappa, L234A L235A, V domains shown)
VH: B3 VH with D31E, A101S, A103Q, A104G
VL: B1 VL with S93L, S94G, L97H
As for B6, the EC50 in assay [1] worked out at 5.3 nM; in assay [6] it was 3.91 nM. For the same molecule, the “Emax (MFI)” value in assay [1] turned out to be 760000 MFI; in assay [6] it was 654000 MFI.

B7: FS22-053-008-AA/FS28-024-053 mAb^2 (bispecific antibody, human IgG1, kappa, L234A L235A, V domains shown)
VH: B1 VH with I102V
VL: B1 VL
notes: also called FS28-024-53
Consider B7, for which the concentration for a half-maximal effect (EC50) in assay [1] was 1.19 nM; in assay [6] it was 7.52 nM. Moreover, the figures for the “Emax (MFI)” value in assay [1] and in assay [6] were 914000 MFI and 965000 MFI, respectively. Also, the Kd was found to be 78.3 nM in assay [2], 49.2 nM in assay [3] and 0.89 nM in assay [5]. For the same molecule, the “Ratio of KD in solution/immobilised” value in assay [4] turned out to be 55.3.

B8: FS22-053-008-AA/FS28-256-001 mAb^2 (bispecific antibody, human IgG1, kappa, L234A L235A, V domains shown)
VH: B3 VH with D31E, A101S, A103Q, A104G
VL: B1 VL with A92H, S93N, S94Q, L97N
As for B8, in assay [1], the EC50 stood at 4.98 nM and the “Emax (MFI)” value was 703000 MFI. For the same molecule, in assay [6], the EC50 was 5.36 nM and the “Emax (MFI)” value was 608000 MFI.

B9: FS22-053-008-AA/FS28-026 mAb^2 (bispecific antibody, human IgG1, kappa, L234A L235A, V domains shown)
VH: EVQLLESGGGLVQPGGSLRLSCAASGFTFSNYAMTWVRQAPGKGLEWVSSITPYYSKTDYADSVKGRFTISRDNSKNTLYLQMNSLRAEDTAVYYCARNWYRFDYWGQGTLVTVSS
VL: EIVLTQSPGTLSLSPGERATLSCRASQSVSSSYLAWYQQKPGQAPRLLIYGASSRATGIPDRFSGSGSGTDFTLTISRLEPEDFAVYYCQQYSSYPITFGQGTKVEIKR
notes: also called FS28-026 (in mAb^2 format)
As to B9, the EC50 in assay [1] was 1.91 nM; in assay [6], 2.65 nM. The “Emax (MFI)” value was 730000 MFI in assay [1] and 702000 MFI in assay [6]. The Kd in assay [2] amounted to 886 nM; in assay [3], 700 nM; in assay [5] it was 0.14 nM. For the same molecule, in assay [4], the “Ratio of KD in solution/immobilised” value was determined as 5000.

B10: FS22-053-008-AA/FS28-091 mAb^2 (bispecific antibody, human IgG1, kappa, L234A L235A, V domains shown)
VH: B9 VH with S30T, T35S, T52K, Y55D, S56G, K57N, D59Y, W100R, Y101W, R102V
VL: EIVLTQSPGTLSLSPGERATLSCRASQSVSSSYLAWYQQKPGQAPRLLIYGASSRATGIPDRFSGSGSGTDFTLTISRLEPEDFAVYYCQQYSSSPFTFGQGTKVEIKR
notes: also called FS28-091 (in mAb^2 format)
As to B10, the EC50 in assay [1] worked out at 2.72 nM; in assay [6] it was 3.97 nM. In addition, the “Emax (MFI)” value in assay [1] was determined as 740000 MFI; in assay [6], 745000 MFI. Further, the Kd was over 1000 nM in assay [2], 615 nM in assay [3] and 1.1 nM in assay [5]. For the same molecule, the “Ratio of KD in solution/immobilised” value in assay [4] was 580.
